Measurements published in IntAct's records for PubMed 17555716.

B1: 26S proteasome regulatory subunit 6B homolog (Saccharomyces cerevisiae), P33298 (parent)
chain: MEELGIVTPVEKAVEEKPAVKSYASLLAQLNGTVNNNSALSNVNSDIYFKLKKLEKEYELLTLQEDYIKDEQRHLKRELKRAQEEVKRIQSVPLVIGQFLEPIDQNTGIVSSTTGMSYVVRILSTLDRELLKPSMSVALHRHSNALVDILPPDSDSSISVMGENEKPDVTYADVGGLDMQKQEIREAVELPLVQADLYEQIGIDPPRGVLLYGPPGTGKTMLVKAVANSTKAAFIRVNGSEFVHKYLGEGPRMVRDVFRLARENAPSIIFIDEVDSIATKRFDAQTGSDREVQRILIELLTQMDGFDQSTNVKVIMATNRADTLDPALLRPGRLDRKIEFPSLRDRRERRLIFGTIASKMSLAPEADLDSLIIRNDSLSGAVIAAIMQEAGLRAVRKNRYVILQSDLEEAYATQVKTDNTVDKFDFYK
partner: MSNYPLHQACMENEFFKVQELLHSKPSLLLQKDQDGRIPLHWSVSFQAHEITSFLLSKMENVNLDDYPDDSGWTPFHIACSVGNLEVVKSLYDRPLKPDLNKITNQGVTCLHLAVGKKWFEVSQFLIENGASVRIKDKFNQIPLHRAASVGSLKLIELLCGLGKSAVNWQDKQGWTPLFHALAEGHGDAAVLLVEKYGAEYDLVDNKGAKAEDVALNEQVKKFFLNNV

Variants of: B1
Settings: with psd10_yeast NAS6, P50086

Variant | effect of a mutation on the interaction
MEELGIVTPVEKAVEEKPAVKSYASLLAQLNGTVNNNSALSNVNSDIYFKLKKLEKEYELLTLQEDYIKDEQRHLKRELKRAQEEVKRIQSVPLVIGQFLEPIDQNTGIVSSTTGMSYVVRILSTLDRELLKPSMSVALHRHSNALVDILPPDSDSSISVMGENEKPDVTYADVGGLDMQKQEIREAVELPLVQADLYEQIGIDPPRGVLLYGPPGTGKTMLVKAVANSTKAAFIRVNGSEFVHKYLGEGPRMVRDVFRLARENAPSIIFIDEVDSIATKRFDAQTGSDREVQRILIELLTQMDGFDQSTNVKVIMATNRADTLDPALLRPGRLDRKIEFPSLRDRRERRLIFGTIASKMSLAPEADLDSLIIRNDSLSGAVIAAIMQEAGLRAVRANAYVILQSDLEEAYATQVKTDNTVDKFDFYK [K397A;R399A] | disrupting interaction strength
MEELGIVTPVEKAVEEKPAVKSYASLLAQLNGTVNNNSALSNVNSDIYFKLKKLEKEYELLTLQEDYIKDEQRHLKRELKRAQEEVKRIQSVPLVIGQFLEPIDQNTGIVSSTTGMSYVVRILSTLDRELLKPSMSVALHRHSNALVDILPPDSDSSISVMGENEKPDVTYADVGGLDMQKQEIREAVELPLVQADLYEQIGIDPPRGVLLYGPPGTGKTMLVKAVANSTKAAFIRVNGSEFVHKYLGEGPRMVRDVFRLARENAPSIIFIDEVDSIATKRFDAQTGSDREVQRILIELLTQMDGFDQSTNVKVIMATNRADTLDPALLRPGRLDRKIEFPSLRDRRERRLIFGTIASKMSLAPAAALDSLIIRNDSLSGAVIAAIMQEAGLRAVRKNRYVILQSDLEEAYATQVKTDNTVDKFDFYK [E365A;D367A] | disrupting interaction strength
